According to patent US20060173159A1, “Water-soluble thioester and selenoester compounds and methods for making and using the same” (priority 2002, published 2006):
No end group written: not given here. *: point of attachment. thioester = C-terminal thioester, without the water-soluble polymer; Acm = CC(=O)NC*

Test: Dissolution of deprotected and cleaved crude peptide-thioester in 50% aqueous acetonitrile containing 0.08% TFA
Format: physicochemical
Settings: 50% aqueous acetonitrile containing 0.08% trifluoroacetic acid (TFA)

Row | Substance | dissolution of deprotected and cleaved peptide-thioester
1 | GRFN 1852-PLP3-Leu: SEQ ID NO:4 peptide, C-terminal L-thioester joined to water-soluble polyamide polymer PLP3-Leu (C(Acm)LSQLHSGLFLYQGLLQALEGISPELGPTLDTLQLDVADFATTIWQQMEEL; not fully specified (C-terminus); also: C-terminal thioester joined to PLP3-Leu polyamide polymer) | completely dissolved
2 | GRFN 1852: SEQ ID NO:3 peptide L-thioester, non-polymer modified; comparator (C(Acm)LSQLHSGLFLYQGLLQALEGISPELGPTLDTLQLDVADFATTIWQQMEEL-thioester) | poorly soluble
